The source of these data is patent US20220389118A1 (Chugai, published 2022).

The target in assay [1] is T1, soluble human IL-6 receptor (human, UniProt P08887 20-357).
T1 construct: also called hsIL-6R
T1 sequence: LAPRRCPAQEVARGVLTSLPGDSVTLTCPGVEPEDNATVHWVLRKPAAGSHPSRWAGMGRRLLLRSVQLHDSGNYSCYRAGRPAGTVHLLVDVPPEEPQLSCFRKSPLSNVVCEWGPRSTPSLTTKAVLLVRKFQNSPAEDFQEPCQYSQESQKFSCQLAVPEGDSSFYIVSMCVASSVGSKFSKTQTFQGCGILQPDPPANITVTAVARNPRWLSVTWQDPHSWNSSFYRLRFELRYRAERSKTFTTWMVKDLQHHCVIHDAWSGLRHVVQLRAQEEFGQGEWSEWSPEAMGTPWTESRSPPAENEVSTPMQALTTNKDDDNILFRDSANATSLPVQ
The experiment in a line: SPR (Reference Example 6). Here is the method: (§1) The kinetic analysis of the antigen-antibody reactions was conducted in solutions with 2 mM and 3 μM calcium ion concentrations, set as high and low calcium ion concentration conditions, respectively. The antibody of interest was captured on Sensor chip CM4 (GE Healthcare) on which an appropriate amount of Protein A (Invitrogen) was immobilized by an amine coupling method. Two buffers [10 mM ACES, 150 mM NaCl, 0.05% (w/v) Tween 20, and 2 mM CaCl₂) (pH 7.4) or 10 mM ACES, 150 mM NaCl, 0.05% (w/v) Tween 20, and 3 μmol/L CaCl₂ (pH 7.4)] were used as running buffers. These buffers were used for diluting human IL-6 receptor. All the measurements were conducted at 37° C.
(§2) Subsequently, the sensor chip was regenerated by injecting 10 mM glycine-HCl (pH 1.5) at a flow rate 30 μL/min for 30 seconds. Dissociation constants (KD) (M) were calculated from the sensorgrams obtained in the measurement, using a steady-state affinity model. Each parameter was calculated using the Biacore T100 Evaluation Software (GE Healthcare).

The target of assay [2] is T2, soluble human IL-6 receptor (hsIL-6R) (human, UniProt P08887 20-357).
T2 sequence: T1 sequence
The experiment in a line: SPR (Biacore T100), 3 µM CaCl2; estimated by Equation 3; summary table. On the procedure: as §1, §2

Assay [3] concerns the target T2, soluble human IL-6 receptor (hsIL-6R). Briefly: SPR (Biacore T100), 3 µM CaCl2, pH 7.4, 37 C; KD estimated from Req, Rmax, RI and C by Equation 3. Here is the method:
as §1, §2

Assay [4] addresses T3, human FcγRIIa type H (H131) extracellular domain with C-terminal His tag (human, UniProt P12318 34-217).
T3 construct: extracellular domain; also called FcγRIIaH; not shown: His tag at the C terminus
T3 sequence (looked up): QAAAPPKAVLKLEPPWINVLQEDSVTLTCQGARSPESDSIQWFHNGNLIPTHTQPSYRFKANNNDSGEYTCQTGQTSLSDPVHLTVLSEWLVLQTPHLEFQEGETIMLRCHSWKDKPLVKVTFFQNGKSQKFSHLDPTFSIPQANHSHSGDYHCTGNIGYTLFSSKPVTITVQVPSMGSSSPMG
The experiment in a line: SPR (Biacore), antibody captured, FcγR analyte.

For assay [5], the target named is T4, human FcγRIIb extracellular domain with C-terminal His tag (human, UniProt P31994 43-217).
T4 construct: extracellular domain; not shown: His tag at the C terminus
T4 sequence (looked up): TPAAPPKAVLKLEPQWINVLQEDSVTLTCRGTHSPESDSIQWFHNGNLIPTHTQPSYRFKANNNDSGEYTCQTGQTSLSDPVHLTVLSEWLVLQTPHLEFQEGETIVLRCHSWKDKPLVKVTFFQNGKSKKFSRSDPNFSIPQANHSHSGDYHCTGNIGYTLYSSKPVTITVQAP
Briefly: SPR (Biacore), antibody captured, FcγR analyte.

Assay [6] has as its target T5, human FcγRIa extracellular domain with C-terminal His tag (human, UniProt P12314 16-292).
T5 construct: not shown: His tag at the C terminus
The experiment in a line: SPR (Biacore), antibody captured, FcγR analyte.

Assay [7] concerns the target T6, human FcγRIIb extracellular domain (human, UniProt P31994 43-217).
T6 construct: also called FcγIIB; not shown: His tag at the C terminus
T6 sequence: T4 sequence (looked up)
Briefly: fold against IL6R-B3/IL6R-L, from SPR KD values.

The target in assay [8] is T7, human FcγRIIa type R extracellular domain (human, UniProt P12318 34-217).
T7 construct: also called FcγRIIaR; FcγRIIa(R); not shown: His tag at the C terminus
T7 chain: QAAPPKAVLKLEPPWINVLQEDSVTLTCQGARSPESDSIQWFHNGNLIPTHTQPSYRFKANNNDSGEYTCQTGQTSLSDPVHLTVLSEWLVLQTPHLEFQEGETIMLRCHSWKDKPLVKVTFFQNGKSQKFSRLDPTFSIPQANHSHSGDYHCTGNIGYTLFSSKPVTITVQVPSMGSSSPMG
Briefly: fold against IL6R-B3/IL6R-L, from SPR KD values.

Assay [9] addresses T6, human FcγRIIb extracellular domain. The experiment in a line: ratio of the SPR KD for FcγRIIaH to the KD for FcγRIIb (selectivity).
Assay [10] shares this target. The experiment in a line: ratio of the SPR KD for FcγRIIaR to the KD for FcγRIIb (selectivity).
The target is the same in assay [11]. Briefly: SPR (Biacore), antibody captured on chip, FcγR extracellular domain as analyte, 25 C.
The target in assay [12] is T8, human FcγRIa extracellular domain (human, UniProt P12314 16-292).
T8 construct: also called CD64; not shown: His tag at the C terminus
The description is as above.

For assay [13], the target named is T7, human FcγRIIa type R extracellular …. The description is as above.
Assay [14] deals with T9, human FcγRIIa type H extracellular domain (human, UniProt P12318 34-217).
T9 construct: also called FcγRIIaH; FcγRIIa(H); not shown: His tag at the C terminus
T9 sequence: T7 chain with R133H
The description is as above.

Numbering of substitutions follows the chain as printed.

T8 sequence (P12314 16-292): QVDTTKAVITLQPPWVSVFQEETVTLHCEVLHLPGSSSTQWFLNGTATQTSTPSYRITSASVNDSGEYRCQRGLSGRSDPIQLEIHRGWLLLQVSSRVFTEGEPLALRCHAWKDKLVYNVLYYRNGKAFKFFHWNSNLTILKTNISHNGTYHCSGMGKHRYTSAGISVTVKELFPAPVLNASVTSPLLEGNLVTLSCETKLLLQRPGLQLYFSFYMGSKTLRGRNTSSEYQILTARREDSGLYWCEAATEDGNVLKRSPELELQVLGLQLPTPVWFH
T5 sequence (P12314 16-292): as above

B1: 6RL#9-IgG1 (antibody, V domains shown)
VH: QVQLVQSGAEVKKPGASVKVSCKASGYTFTSYYMHWVRQAPGQGLEWMGIINPSGGSTSYAQKFQGRVTMTRDTSTSTVYMELSSLRSEDTAVYYCARDDPGGGEYYFDYWGQGTLVTVSS
VL: QSVLTQPPSVSGAPGQRVTISCTGSRSNMGAGYDVHWYQLLPGAAPKLLISHNTHRPSGVPDRFSGSKSGASASLAITGLQAEDEADYYCQSHDSSLSAVVFGGGTKLTVLS
notes: also called antibody 6RL#9
In [1], B1 yielded a Ca-dependent binding ability not below 100 fold.

B2: 6RL#9-IgG1 (antibody, V domains shown)
VH: B1 VH
VL: B1 VL
Turning to B2, the Kd was not below 31000 nM in assay [2] and approximately 31000 nM in assay [3].

B3: IL6R-BP455/IL6R-L (antibody, human IgG1, kappa)
heavy: QVQLQESGPGLVKPSETLSLTCAVSGHSISHDHAWSWVRQPPGEGLEWIGFISYSGITNYNPSLQGRVTISRDNSKNTLYLQMNSLRAEDTAVYYCARSLARTTAMDYWGEGTLVTVSSASTKGPSVFPLAPSSKSTSGGTAALGCLVKDYFPEPVTVSWNSGALTSGVHTFPAVLQSSGLYSLSSVVTVPSSSLGTQTYICNVNHKPSNTKVDKKVEPKSCDKTHTCPPCPAPDLLGDDSVFLFPPKPKDTLMISRTPEVTCVVVDVAEEDGEVKFNWYVDGVEVHNAKTKPREEQYNSTYRVVSVLTVLHQDWLNGKEYKCKVSNKALPRPIEKTISKAKGQPREPQVYTLPPSRDELTKNQVSLTCLVKGFYPSDIAVEWESNGQPENNYKTTPLVLDSDGSFFLYSKLTVDKSRWQQGNVFSCSVMHEALHNHYTQESLSLSP
light: not shown
notes: P396L introduced into IL6R-BP423; copies: 2 + 2
In the case of B3, the Kd in [4] was found to be 1600 nM; in assay [5], 4 nM.

B4: IL6R-BP456/IL6R-L (antibody, human IgG1, kappa)
heavy: B3 heavy with L398M
light: not shown
notes: P396M introduced into IL6R-BP423; copies: 2 + 2
As for B4, the figures for the Kd in assay [6] and in assay [4] were 0.6 nM and 2000 nM, respectively.

B5: IL6R-BP565/IL6R-L (antibody, human IgG1, kappa)
heavy: B3 heavy with Y298D, L398P
light: not shown
notes: copies: 2 + 2
For the molecule B5, the “KD(IIb) of the parent polypeptide/KD(IIb) of the altered polypeptide” value in [7] worked out at 565. Further, the “KD(IIaR) of the parent polypeptide/KD(IIaR) of the altered polypeptide” value in [8] worked out at 4.8. In addition, the “KD(IIaH)/KD(IIb)” value in assay [9] was 856. In addition, the “KD(IIaR)/KD(IIb)” value in assay [10] is 41.5. The Kd in [11] came to 5.5 nM; in assay [12], 2.4 nM; in assay [13] it was 230 nM; in [14] it was 4700 nM.

B6: IL6R-BP464/IL6R-L (antibody, human IgG1, kappa)
heavy: B3 heavy with L398Y
light: not shown
notes: P396Y introduced into IL6R-BP423; copies: 2 + 2
On to B6, for which the affinity in assay [5], expressed as Kd, was 4 nM.

B7: IL6R-BP563/IL6R-L (antibody, human IgG1, kappa)
heavy: B3 heavy with A269S, E274D, Y298D, L398P
light: not shown
notes: copies: 2 + 2
For the molecule B7, the “KD(IIb) of the parent polypeptide/KD(IIb) of the altered polypeptide” value in [7] came to 196. The “KD(IIaR) of the parent polypeptide/KD(IIaR) of the altered polypeptide” value in assay [8] worked out at 2.4. For the same molecule, the “KD(IIaH)/KD(IIb)” value in assay [9] came to 525. Besides, the “KD(IIaR)/KD(IIb)” value in [10] turned out to be 29.1. In addition, the Kd in [11] stood at 16 nM; in [12] it was 12 nM; in assay [13] it was 460 nM; in assay [14] it was 8300 nM.

B8: FH4-IgG1 (antibody, V domains shown)
VH: QVQLVQSGAEVKKPGSSVKVSCKASGGTFSSYAISWVRQAPGQGLEWMGGIIPIFGTANYAQKFQGRVTITADESTSTAYMELSSLRSEDTAVYYCARERDYYDSSGYYDAFDIWGQGTMVTVSS
VL: ETTVTQSPSFLSASVGDRVTITCITTTDIDDDMNWFQQEPGKAPKLLISEGNILRPGVPSRFSSSGYGTDFTLTISKLQPEDFATYYCLQSDNLPFTFGQGTKLEIKR
Molecule B8 came in with a Ca-dependent binding ability in assay [1] not below 100 fold.

B9: FH4-IgG1 (antibody, V domains shown)
VH: B8 VH
VL: B8 VL
Turning to B9, the Kd was not below 34000 nM in assay [2] and approximately 34000 nM in assay [3].
